Consider three molecules from patent US20110262471A1 (ONCOTHERAPY SCIENCE, published 2011).

The experiment addresses T1, human beta 2m-HLA-A2.1 (alpha 1, alpha 2)-H-2 Db (alpha 3 transmembrane cytoplasmic; HHD) monochain (human; mouse, UniProt P61769 21-119; P01899 207-362).
T1 chain (looked up): not shown
The experiment is described as follows: cell-based or functional assay.
With AQPDTAPLPV [RAB6KIFL-A2-10-284 peptide], the “IFN-gamma ELISPOT of CD4- spleen cells of immunized HLA-A2.1 (HHD) Tgm, in response to BM-DCs pulsed with the peptide” value was found to be 141 spot counts/well.

Take LLSDDDVVV [RAB6KIFL-A2-9-12 peptide]: the “IFN-gamma ELISPOT of CD4- spleen cells of immunized HLA-A2.1 (HHD) Tgm, in response to BM-DCs pulsed with the peptide” value was 149 spot counts/well. In the case of CIAEQYHTV [RAB6KIFL-A2-9-809 peptide] it was 117 spot counts/well.
